Laboratory results reported in US10172951B2, “Dendrimer based nanodevices for therapeutic and imaging purposes” (priority 2009, dated 2019).

Legend:
[1] = Solubility in PBS/H2O; format: physicochemical
[2] = GSH triggered NAC release from PAMAM dendrimer-NAC conjugates (RP-HPLC); format: physicochemical; conditions: for amount released: over 20 hours
Protocol: (§1) Appropriate amounts of PAMAM-S—S-NAC conjugate were dissolved in release media (Citrate or PBS buffers) to form a solution of 1 mg/ml PAMAM-S—S-NAC. One of the thiol containing molecules (GSH, Cys or BSA) was added to the conjugates to form 10 mM, 2 mM, 0.5 mM 0.1 mM or 2 μM overall thiol group concentrations and to initiate the release of NAC. All samples were run as triplicates for statistical analysis.
As control samples, conjugates were analyzed in both release media in the absence of reducing agents. The solutions were kept at 37° C. and stirred continuously. At predetermined time intervals, […] of samples were withdrawn and immediately analyzed with RP-HPLC and the concentrations of analytes were determined by using appropriate calibrations prepared under same conditions.
Dendrimer NAC conjugates were analyzed for their drug release mechanism and kinetics in the presence of GSH, Cys and BSA. Buffer solutions with pH 5 (Citrate Buffer) and pH 7.4 (Phosphate Buffered Saline) containing various concentrations of these thiol containing moieties were used in release studies.
All GSH concentrations studied were between average plasma (2 μM) and intracellular (2-10 mM) GSH levels. Various GSH concentrations were used in order to determine the GSH dependent release kinetics of the conjugate. The conjugate solutions contained 730 μM NAC in the conjugated form (1 mg/ml PAMAM-S—S-NAC) at the beginning of the release studies. GSH concentration in the release media was compared to the conjugated NAC concentrations in the release solutions for analysis of the release kinetics and mechanism.
The release of NAC from the conjugates was investigated in the presence of GSH at intracellular and extracellular concentrations. It was assumed that the release of NAC would occur by the disulfide exchange reaction. GSH and its oxidized form (GSSG) are responsible for forming the intracellular redox buffer. Intracellularly, GSH takes the role of attacking thiolate moiety and gets oxidized in the process while cleaving the existing disulfide bonds.
The conjugates were also analyzed in the absence of GSH to verify the stability of the disulfide linkage at physiological pH. […] The extent of the release of drug from both dendrimer-NAC conjugates was also analyzed at plasma and intracellular GSH concentrations. The conjugates and the GSH in required amounts were added to PBS solution, and the solution was analyzed at various time intervals by HPLC for up to 17 hours. UV absorbance peak areas were used to determine the concentrations of each of the species in the solution, based on appropriate calibration curves.

[3] = Stability of conjugate in bovine serum albumin (BSA) solution; format: physicochemical; conditions: pH 7.4 and pH 5, over 24 hours
Description: To investigate the reducing activity of Cys in protein structures, bovine serum albumin (BSA) was chosen for release studies since it is the most abundant protein in plasma. Additionally, for intravenous administration of conjugates, it is important for the drug to stay intact with the carrier until the conjugate reaches its final destination within the body. Thus the release characteristic in the presence of albumin is crucial for intravenous applications. The release studies in the presence of BSA were carried out at pH 7.4 and pH 5 as well. The BSA concentrations used for the studies were adjusted so that the overall Cys concentrations in BSA release media were the same as the GSH and Cys release studies, discussed earlier. In addition to the five thiol concentrations studied, the stability of the conjugate at plasma BSA concentration was also analyzed.

[4] = tested on: Mouse microglial cell line (BV-2); experiment: In vitro cytotoxicity, MTT assay (Example 19)
Description: In vitro cytotoxicity of the conjugate, dendrimer and NAC, at conditions similar to that used in the efficacy assays, was investigated by MTT assay. Mouse microglial cell line (BV-2) was obtained from Children's Hospital of Michigan Cell Culture Facility. These cells were used because the eventual in vivo applications seek to target microglial cells that become activated as a result of neuroinflammation.
The lipopolysaccharide (LPS) was used to activate the cells for the ROS assay. For the cytotoxicity study, the LPS treatment was continuous for 24 hours. For both groups, the LPS concentration used was 100 ng/ml. Three concentrations of NAC were studied: 0.5 mM, 2 mM and 8 mM. For the conjugate assays, the concentrations used corresponded to equivalent NAC doses of the free drug treatment groups. Similarly, the dendrimer assays were run by using dendrimer concentrations that were equivalent to conjugate treatments. Control groups included cells receiving only LPS and no other treatment and cells with no LPS or other treatment. The proportion of viable cells in the treated group was compared to that of negative control. The cell viability is expressed as mean±SD of three samples per group, and assessed by t-test.

[5] = Cysteine triggered NAC release from PAMAM-S-S-NAC; format: physicochemical; conditions: pH 7.4
Protocol: as §1

[6] = tested on: BV-2 cells; experiment: ROS assay, percent reduction in H2O2 in LPS-treated BV-2 cells (Example 19); format: cell-based, mouse; conditions: for reduction in H2O2 levels: 0.5 mM NAC (equivalent), co-treatment with LPS
Protocol: Cells were treated with lipopolysaccharide (LPS) to induce the production of ROS. The cells were treated with LPS (100 ng/ml) and either NAC, PAMAM-S—S-NAC, or free PAMAM-NH2 dendrimers at appropriate concentrations to study the efficacy of the conjugates for reducing the ROS concentrations. In order to quantify the efficacy of conjugates, H2O2 released from BV-2 cells (ROS) was measured using the Amplex Red Hydrogen Peroxide/Peroxidase Assay Kit using previously established procedures.

[7] = 10 mM GSH, PBS pH 7.4, within 1 hour
[8] = 10 mM GSH, after the initial 1 hour release (time not given)

PAMAM-NH—CO-Ethyl-S—S-NAC [PAMAM-S—S-NAC]
Solubility in PBS/H2O [1]: Highly | NAC payload in GS-S-NAC (NAC-GSH) form [2, 7]: 19% | NAC payload released in free form [2, 7]: 47% | total NAC release [2, 7]: 66% | NAC payload as GS-S-NAC [2, 8]: 14% | NAC payload in free form [2, 8]: 41% | NAC release ([2]; PBS buffer without GSH, 17 hours): did not release any of the NAC they carried | duration of sustained drug release ([2]; lysosomal pH): about 8 hours | NAC release ([2]; pH 5, 2 μM GSH, within 20 hours): no significant amount NAC was released | amount released ([2]; pH 5, 100 μM GSH): 15% | amount released ([2]; pH 5, 500 μM GSH): 58% | time to nearly completed release ([2]; pH 5, 2000 μM GSH): up to 20 hours | time to nearly completed release ([2]; pH 5, 10,000 μM GSH): ≤ 7 h | maximum extent of payload release ([2]; pH 5.0, intracellular GSH concentrations): about 90% | NAC payload released ([2]; pH 5, intracellular GSH concentrations (excess), within 20 hours): 95% | NAC release ([2]; pH 5, no GSH): did not release any NAC | NAC release ([2]; pH 7.4, 2 μM GSH): no detectable level of NAC released | NAC release ([2]; pH 7.4, 100 μM GSH): 6% | NAC release ([2]; pH 7.4, 500 μM GSH): 31% | payload released ([2]; pH 7.4, 2000 μM GSH): 60% | payload released ([2]; pH 7.4, 10,000 μM GSH): 66% | NAC release ([2]; pH 7.4, absence of GSH, within 3 days): did not release any NAC | maximum extent of payload release ([2]; pH 7.4, intracellular GSH concentrations): approximately 65% | drug released ([2]; pH 7.4, intracellular GSH levels, in less than two hours): More than 60% | NAC payload found as GS-S-NAC or NAC-NAC ([2]; plasma GSH concentration (2 μM)): 1% | release of free NAC ([2]; plasma GSH concentration (2 μM), 17 hours): did not release any detectable levels of free NAC | NAC release in presence of BSA [3]: no NAC being released | cell survival rate ([4]; highest dose): 84% | cell survival rate ([4]; lowest concentration of the conjugate): greater than 95% | rate of NAC release with Cys compared to GSH [5]: slightly faster rates | reduction in H2O2 levels ([6]; 24 hours): 72% | reduction in H2O2 levels ([6]; 72 hours): 101% | reduction in effective dose ([6]; 3 hours of treatment, lower drug doses (0.5 mM and 2 mM)): ≤ 4 fold | reduction of effective dose of NAC ([6]; continuous treatment, 0.5 mM conjugate vs 8 mM free NAC): about 16 times
